Results from publication PMC5674887.

Key:
[1] = target: cNup98 (cysteine-tagged FG domain of human Nup98) (human) (UniProt P52948); assay: SPR
[2] = target: cNup62 (cysteine-tagged FG domain of human Nup62) (human) (UniProt P37198); assay: SPR
[3] = target: cNup214 (cysteine-tagged FG domain of human Nup214) (human) (UniProt P35658); assay: SPR
[4] = target: cNup153 (cysteine-tagged FG domain of human Nup153) (human) (UniProt P49790); assay: SPR
[5] = target: karyopherinβ1 (human) (UniProt Q14974); assay: ITC
karyopherinβ1 (human), sequence (Q14974 whole entry): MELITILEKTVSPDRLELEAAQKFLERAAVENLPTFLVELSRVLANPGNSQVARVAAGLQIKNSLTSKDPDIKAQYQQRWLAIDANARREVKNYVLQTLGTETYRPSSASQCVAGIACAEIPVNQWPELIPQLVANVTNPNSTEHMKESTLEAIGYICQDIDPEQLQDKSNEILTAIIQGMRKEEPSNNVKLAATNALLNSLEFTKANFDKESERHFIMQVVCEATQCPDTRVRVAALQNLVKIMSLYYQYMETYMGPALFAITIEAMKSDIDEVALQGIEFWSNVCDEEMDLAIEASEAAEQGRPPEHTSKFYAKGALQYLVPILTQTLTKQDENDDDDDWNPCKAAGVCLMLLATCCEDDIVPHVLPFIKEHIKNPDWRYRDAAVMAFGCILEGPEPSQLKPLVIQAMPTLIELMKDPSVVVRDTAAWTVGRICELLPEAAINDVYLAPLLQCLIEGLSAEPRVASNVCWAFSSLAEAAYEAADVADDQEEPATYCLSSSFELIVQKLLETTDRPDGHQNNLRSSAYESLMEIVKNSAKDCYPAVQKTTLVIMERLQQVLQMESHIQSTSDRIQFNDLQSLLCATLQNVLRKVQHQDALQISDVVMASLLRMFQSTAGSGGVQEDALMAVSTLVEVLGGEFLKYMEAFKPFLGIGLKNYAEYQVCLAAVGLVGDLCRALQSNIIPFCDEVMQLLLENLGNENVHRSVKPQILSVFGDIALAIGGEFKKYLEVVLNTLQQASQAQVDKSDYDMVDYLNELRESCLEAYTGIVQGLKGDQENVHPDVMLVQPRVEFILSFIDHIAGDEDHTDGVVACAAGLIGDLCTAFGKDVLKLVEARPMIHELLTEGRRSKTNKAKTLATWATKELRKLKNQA

cNup153 (cysteine-tagged FG domain of human Nup153) (human), sequence (P49790 whole entry, the tested form may be a part): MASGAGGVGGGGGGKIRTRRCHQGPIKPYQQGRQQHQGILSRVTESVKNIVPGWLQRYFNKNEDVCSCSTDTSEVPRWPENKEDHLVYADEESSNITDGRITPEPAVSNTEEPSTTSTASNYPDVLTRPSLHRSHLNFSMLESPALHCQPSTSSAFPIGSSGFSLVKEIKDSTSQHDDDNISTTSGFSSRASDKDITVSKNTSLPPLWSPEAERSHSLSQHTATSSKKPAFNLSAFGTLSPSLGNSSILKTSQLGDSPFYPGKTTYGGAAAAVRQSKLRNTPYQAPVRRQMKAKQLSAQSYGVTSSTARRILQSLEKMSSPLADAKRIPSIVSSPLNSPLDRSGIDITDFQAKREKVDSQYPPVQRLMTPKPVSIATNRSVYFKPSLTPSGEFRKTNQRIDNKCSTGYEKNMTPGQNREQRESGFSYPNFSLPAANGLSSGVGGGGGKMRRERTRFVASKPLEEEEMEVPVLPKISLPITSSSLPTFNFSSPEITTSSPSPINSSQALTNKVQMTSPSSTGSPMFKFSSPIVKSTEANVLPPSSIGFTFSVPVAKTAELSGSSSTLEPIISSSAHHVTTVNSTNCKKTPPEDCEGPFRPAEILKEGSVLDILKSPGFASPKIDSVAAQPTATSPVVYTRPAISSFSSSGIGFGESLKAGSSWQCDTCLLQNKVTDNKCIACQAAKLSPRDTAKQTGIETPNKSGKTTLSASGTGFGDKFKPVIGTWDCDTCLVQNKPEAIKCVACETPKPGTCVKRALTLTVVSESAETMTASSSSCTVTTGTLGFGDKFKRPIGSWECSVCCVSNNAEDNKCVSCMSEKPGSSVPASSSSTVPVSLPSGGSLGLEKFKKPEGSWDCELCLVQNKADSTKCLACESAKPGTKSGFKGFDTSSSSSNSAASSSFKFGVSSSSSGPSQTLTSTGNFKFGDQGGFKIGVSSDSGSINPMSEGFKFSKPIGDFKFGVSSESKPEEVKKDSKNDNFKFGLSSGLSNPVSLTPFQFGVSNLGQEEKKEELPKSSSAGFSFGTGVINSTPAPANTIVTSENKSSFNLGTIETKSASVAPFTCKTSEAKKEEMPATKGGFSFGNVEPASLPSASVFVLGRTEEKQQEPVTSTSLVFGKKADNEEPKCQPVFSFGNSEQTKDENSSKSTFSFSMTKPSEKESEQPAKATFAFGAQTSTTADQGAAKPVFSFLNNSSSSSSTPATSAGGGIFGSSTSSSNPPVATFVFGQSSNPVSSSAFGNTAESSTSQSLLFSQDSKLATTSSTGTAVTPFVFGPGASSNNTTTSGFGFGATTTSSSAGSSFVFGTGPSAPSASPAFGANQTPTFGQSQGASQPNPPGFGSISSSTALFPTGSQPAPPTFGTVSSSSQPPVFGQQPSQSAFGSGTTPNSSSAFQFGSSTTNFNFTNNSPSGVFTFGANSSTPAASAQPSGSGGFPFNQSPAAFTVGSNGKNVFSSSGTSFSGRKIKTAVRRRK
cNup98 (cysteine-tagged FG domain of human Nup98) (human), sequence (P52948 whole entry, the tested form may be a part): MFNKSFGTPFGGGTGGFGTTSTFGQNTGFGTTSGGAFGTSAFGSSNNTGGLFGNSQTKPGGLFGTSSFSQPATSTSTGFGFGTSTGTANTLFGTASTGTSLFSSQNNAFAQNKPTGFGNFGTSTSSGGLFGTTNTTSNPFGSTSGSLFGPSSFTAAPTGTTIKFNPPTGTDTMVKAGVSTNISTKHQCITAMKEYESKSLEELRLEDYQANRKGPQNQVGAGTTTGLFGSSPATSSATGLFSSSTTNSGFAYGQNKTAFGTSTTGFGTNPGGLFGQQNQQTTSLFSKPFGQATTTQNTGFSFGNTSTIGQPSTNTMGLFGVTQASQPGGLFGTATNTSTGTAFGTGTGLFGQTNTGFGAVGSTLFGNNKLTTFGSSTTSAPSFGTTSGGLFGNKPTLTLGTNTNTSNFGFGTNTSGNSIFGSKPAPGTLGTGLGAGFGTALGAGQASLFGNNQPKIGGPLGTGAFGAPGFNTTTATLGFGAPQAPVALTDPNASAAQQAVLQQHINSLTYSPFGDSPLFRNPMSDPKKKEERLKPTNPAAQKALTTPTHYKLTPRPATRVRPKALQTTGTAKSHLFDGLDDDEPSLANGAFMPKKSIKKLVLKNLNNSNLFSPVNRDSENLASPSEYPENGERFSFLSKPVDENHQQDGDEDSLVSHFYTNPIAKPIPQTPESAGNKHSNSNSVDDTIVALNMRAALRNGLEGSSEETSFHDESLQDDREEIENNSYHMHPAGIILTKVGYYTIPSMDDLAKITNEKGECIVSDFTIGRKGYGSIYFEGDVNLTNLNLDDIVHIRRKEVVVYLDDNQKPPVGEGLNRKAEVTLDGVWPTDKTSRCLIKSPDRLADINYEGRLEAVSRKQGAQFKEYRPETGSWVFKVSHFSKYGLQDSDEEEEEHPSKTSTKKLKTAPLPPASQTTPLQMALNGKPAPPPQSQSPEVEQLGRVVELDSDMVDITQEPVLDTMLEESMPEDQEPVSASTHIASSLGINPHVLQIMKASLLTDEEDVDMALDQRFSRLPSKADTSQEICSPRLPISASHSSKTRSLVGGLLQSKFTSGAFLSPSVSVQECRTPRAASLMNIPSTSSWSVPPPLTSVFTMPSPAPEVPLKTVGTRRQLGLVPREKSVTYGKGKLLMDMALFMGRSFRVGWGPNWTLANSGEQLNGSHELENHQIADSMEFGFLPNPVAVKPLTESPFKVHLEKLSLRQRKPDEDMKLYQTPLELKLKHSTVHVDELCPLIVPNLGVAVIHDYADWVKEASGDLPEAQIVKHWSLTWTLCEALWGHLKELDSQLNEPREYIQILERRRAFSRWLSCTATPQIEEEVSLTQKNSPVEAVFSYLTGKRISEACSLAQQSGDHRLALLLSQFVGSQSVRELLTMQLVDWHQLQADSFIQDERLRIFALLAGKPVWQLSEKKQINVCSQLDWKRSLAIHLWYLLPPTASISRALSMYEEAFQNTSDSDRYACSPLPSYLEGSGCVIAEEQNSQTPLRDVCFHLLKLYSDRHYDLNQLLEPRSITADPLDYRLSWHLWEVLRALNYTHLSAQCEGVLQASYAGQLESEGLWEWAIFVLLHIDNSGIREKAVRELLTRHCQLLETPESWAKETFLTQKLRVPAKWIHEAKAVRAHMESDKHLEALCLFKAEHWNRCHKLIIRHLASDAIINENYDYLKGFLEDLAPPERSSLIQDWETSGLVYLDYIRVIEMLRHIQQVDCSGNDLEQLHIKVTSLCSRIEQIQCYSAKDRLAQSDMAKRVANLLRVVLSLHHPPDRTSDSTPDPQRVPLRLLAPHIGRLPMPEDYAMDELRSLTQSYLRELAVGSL
cNup62 (cysteine-tagged FG domain of human Nup62) (human), sequence (P37198 whole entry, the tested form may be a part): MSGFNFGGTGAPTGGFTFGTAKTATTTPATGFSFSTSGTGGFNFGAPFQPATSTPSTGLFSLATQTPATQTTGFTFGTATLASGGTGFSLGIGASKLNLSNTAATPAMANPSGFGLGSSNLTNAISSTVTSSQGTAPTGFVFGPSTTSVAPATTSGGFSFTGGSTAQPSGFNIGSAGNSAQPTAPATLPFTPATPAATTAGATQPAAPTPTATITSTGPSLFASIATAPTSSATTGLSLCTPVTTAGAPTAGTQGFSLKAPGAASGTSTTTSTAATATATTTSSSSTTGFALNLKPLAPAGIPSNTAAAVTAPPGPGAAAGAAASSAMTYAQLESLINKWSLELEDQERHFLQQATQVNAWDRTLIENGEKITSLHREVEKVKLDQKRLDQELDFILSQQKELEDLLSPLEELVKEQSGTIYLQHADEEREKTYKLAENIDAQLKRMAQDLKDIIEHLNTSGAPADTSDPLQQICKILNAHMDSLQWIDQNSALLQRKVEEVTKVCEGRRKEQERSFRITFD

Substance | fold higher affinity than Kapβ1 and RanGTP·Kapβ1 (strong binding phase) [1] [fold] | fold higher affinity than Kapβ1 and RanGTP·Kapβ1 (strong binding phase) [2] [fold] | fold higher affinity than Kapβ1 and RanGTP·Kapβ1 (strong binding phase) [3] [fold] | fold higher affinity than Kapβ1 and RanGTP·Kapβ1 (strong binding phase) [4] [fold] | Kd [5] [nM] | Kd [4] [nM]
Kapα·Kapβ1 (from UniProt P52292;Q14974) (complex) | 10 | 10 | 10 | 10 |  | 
RanGTP (from UniProt P62826 1-216) (natural protein) |  |  |  |  | 35 | 
karyopherinα (from UniProt P52292 1-529) (natural protein) |  |  |  |  | 210 | 1300
